Patent US20200157212A1

Target: Terbium (Tb) labeled-SNAP tagged ROBO2 expressed on HEK293 cells (Homo sapiens (Human)) (UniProt Q9HCK4)
Assay: HTRF competition, competitor d2-SLIT2-N, ROBO2 HEK293 cells

Sequence of Terbium (Tb) labeled-SNAP tagged ROBO2 expressed on HEK293 cells (Homo sapiens (Human)) (Q9HCK4 22-1378): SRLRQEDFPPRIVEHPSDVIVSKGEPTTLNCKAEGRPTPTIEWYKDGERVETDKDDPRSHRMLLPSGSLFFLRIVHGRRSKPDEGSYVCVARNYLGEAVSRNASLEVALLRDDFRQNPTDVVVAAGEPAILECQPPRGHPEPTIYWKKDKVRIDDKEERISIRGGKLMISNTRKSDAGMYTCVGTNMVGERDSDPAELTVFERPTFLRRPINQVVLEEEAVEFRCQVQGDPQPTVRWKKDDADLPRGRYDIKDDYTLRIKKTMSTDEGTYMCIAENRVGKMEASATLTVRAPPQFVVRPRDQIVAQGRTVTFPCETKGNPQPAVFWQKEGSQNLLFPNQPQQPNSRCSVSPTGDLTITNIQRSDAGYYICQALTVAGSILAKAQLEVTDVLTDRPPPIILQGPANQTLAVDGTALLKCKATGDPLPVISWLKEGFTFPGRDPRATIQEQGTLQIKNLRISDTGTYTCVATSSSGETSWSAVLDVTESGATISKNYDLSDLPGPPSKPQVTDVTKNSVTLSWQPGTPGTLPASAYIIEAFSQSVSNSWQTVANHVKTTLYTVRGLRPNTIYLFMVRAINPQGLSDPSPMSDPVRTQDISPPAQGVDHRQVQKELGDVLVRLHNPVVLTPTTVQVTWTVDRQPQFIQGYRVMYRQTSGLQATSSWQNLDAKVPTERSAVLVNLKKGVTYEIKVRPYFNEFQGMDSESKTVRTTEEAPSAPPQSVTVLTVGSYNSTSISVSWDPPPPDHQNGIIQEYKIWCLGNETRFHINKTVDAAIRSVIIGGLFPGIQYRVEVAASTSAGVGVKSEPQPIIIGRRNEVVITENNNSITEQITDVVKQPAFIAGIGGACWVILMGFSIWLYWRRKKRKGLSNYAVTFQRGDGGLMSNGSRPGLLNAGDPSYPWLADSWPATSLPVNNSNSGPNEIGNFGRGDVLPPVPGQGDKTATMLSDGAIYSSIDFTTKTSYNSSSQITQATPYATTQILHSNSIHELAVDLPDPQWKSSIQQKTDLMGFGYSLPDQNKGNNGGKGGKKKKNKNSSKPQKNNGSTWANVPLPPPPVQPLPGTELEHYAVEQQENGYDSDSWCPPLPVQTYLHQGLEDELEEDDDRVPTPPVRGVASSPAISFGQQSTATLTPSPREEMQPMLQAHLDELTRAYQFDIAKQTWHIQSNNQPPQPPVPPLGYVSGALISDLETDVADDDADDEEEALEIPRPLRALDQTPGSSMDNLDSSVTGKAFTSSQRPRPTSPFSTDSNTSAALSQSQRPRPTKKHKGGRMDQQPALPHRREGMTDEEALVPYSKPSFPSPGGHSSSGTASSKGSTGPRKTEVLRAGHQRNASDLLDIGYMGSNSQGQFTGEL

Control Ab (antibody)
IC50: 125 nM
